{"source": "FireProtDB (doi:10.1021/bi962155i)", "conditions": "Saccharomyces cerevisiae (strain ATCC 204508 / S288c), pH 5, CD, Sodium acetate buffer, reversible: yes", "note": "Values joined by “and” are separate entries in the source; they are usually repeats but may differ in a detail not shown here. Identical values can stand only once."}
{"substance": "Cytochrome c isoform 1 wild type, P00044", "values": [{"measurement": "denaturant m value", "setting": "5 °C, GdnHCl", "value": 5.4, "unit": "kcal/mol/M"}, {"measurement": "denaturant midpoint (higher = more stable)", "setting": "5 °C, GdnHCl", "value": 1.4, "unit": "M"}, {"measurement": "unfolding free energy", "setting": "5 °C, GdnHCl", "value": 7.8, "unit": "kcal/mol"}, {"measurement": "unfolding enthalpy (calorimetric)", "setting": "Thermal", "value": "91.8 kcal/mol and 42.8 kcal/mol"}]}
